Laboratory results from patent publication US20190153113A1, “CD39 VASCULAR ISOFORM TARGETING AGENTS” (INNATE PHARMA, priority 2015, published 2019).

Experiments:
[1] = molecular target: T1, CD39 mutant 15 (K87A, E100A, D107A) (human, UniProt P49961 1-510); experiment: flow cytometry, HEK293T cells transfected with mutant 15
T1 construct: Transfected in HEK293T cells
T1 chain: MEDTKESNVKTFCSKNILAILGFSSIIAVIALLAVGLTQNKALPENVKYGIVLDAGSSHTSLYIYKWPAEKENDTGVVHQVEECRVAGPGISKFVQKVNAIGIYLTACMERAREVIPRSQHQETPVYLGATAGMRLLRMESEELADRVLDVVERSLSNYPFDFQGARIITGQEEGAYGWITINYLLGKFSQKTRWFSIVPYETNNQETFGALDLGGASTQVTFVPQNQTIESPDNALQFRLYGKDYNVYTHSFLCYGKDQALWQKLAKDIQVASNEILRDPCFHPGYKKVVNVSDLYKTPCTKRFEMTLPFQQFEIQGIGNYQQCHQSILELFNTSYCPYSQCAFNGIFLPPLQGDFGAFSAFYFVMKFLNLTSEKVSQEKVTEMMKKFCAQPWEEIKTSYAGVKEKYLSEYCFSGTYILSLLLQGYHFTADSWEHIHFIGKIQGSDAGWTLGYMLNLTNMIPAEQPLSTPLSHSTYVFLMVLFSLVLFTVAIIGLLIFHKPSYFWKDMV

[2] = molecular target: T2, CD39 mutant 3 (R118A, S119A, Q120K, Q122H, E123A) (human, UniProt P49961 1-510); experiment: flow cytometry, HEK293T cells transfected with mutant 3
T2 construct: Transfected in HEK293T cells
T2 chain: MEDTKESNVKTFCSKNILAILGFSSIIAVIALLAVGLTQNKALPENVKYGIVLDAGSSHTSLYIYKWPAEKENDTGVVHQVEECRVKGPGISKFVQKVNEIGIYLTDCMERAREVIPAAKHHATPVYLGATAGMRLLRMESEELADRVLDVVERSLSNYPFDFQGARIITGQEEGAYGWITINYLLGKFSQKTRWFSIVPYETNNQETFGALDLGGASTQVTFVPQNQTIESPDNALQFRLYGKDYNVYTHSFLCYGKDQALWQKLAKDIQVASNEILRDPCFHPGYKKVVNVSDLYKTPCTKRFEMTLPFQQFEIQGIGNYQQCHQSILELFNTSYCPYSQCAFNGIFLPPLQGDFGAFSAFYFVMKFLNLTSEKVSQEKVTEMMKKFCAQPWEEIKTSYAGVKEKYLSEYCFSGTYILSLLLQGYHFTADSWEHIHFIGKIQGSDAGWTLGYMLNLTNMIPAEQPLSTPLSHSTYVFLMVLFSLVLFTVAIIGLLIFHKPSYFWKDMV

[3] = molecular target: T3, CD39 mutant 5 (Q96A, N99A, E143A, R147E) (human, UniProt P49961 1-510); experiment: flow cytometry on transfected HEK293T cells
T3 construct: Transfected in HEK293T cells
T3 chain: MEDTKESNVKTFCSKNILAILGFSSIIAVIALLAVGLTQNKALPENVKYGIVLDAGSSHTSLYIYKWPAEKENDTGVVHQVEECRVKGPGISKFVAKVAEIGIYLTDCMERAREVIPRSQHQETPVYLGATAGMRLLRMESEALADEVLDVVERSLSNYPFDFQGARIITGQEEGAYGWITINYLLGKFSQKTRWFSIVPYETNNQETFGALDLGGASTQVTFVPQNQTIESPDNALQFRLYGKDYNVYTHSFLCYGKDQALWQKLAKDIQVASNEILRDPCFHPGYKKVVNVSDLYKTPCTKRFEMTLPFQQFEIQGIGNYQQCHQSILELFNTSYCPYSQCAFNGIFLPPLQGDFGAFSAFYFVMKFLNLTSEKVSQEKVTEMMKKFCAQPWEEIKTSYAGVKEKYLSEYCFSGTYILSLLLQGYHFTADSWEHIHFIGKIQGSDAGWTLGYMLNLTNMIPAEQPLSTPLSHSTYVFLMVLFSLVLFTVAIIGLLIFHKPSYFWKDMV

[4] = molecular target: T4, CD39 mutant 2B (E110A, R113T, E114A) (human, UniProt P49961 1-510); experiment: flow cytometry, HEK293T cells transfected with mutant 2B
T4 construct: Transfected in HEK293T cells
T4 chain: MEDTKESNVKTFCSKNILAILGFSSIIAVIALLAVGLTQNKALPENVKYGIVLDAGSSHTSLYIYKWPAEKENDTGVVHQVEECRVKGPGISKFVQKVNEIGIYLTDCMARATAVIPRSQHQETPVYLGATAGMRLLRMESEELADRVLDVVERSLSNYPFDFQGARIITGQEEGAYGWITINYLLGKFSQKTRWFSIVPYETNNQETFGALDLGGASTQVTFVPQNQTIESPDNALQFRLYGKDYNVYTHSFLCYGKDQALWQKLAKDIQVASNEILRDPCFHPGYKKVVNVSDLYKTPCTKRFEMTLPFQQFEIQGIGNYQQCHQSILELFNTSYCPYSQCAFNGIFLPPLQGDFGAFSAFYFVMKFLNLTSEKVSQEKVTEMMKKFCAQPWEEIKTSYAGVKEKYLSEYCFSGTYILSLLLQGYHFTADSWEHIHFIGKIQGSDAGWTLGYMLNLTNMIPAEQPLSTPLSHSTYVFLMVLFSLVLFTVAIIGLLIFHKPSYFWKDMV

[5] = molecular target: T5, Recombinant human CD39-L3 (NTPDase3, ENTPD3) (human, UniProt O75355 44-485, limits assumed); experiment: ELISA on coated RechuCD39-L3, OD 450 nm [top panel CHS2-I-391]
T5 construct: Coated in ELISA
T5 sequence: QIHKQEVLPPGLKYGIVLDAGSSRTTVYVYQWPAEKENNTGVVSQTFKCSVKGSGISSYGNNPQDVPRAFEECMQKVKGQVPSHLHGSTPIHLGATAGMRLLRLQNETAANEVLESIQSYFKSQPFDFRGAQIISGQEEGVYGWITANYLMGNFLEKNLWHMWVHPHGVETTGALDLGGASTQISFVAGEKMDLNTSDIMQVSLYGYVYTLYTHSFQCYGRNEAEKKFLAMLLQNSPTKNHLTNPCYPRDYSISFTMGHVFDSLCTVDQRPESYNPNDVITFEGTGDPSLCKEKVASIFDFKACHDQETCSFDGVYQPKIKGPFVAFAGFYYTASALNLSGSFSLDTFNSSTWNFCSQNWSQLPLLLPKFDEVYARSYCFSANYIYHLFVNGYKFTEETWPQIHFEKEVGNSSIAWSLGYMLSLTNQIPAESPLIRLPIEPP
Protocol: Wells were washed in TBS Tween 20, and further saturated 2H at RT in TBS Blocking buffer. Dose range concentration of primary antibody was incubated in TBS blocking buffer for 2h at RT. Wells were washed in TBS Tween 20. […] Optical density was measured on Enspire at OD=450.

B1: Antibody I-391, Fc silent recombinant chimeric human IgG1 with heavy chain N297Q mutation (antibody, V domains shown)
VH: QIQLVQSGPELKKPGETVKISCKASGYTFRNYGMNWVKQAPGKGLKWMGWINTYTGEPTYADDFKGRFAFSLATSASTAYLQISNLKNEDTATYFCARKAYYGSNYYFDYWGQGTTLTVSS
VL: DIVMTQSHKFMSTSVGDRVSITCKASQDVSTAVAWYQQKPGQSPKLLIYSASYRYTGVPDRFTGSGSGTDFTFTISTVQAEDLAVYYCQQHYTTPPYTFGGGTKLEIKR
B1: binds [1]; binds [2]; no binding (tested: dose range 10 to 0.0006 µg/ml) [3]. B1: binds [4]; no binding (tested: 50 ug/ml) [5].
